Source: publication PMC9536601

Columns and labels:
[1] = molecular target: chimeric hexon of Ad5:H1.1 (Ad5 vector, hexon residues 112-593 from Ad1 hexon), on the virion (human adenovirus type 5 | human adenovirus type 1) (UniProt P04133); experiment: SPR; Biacore T200; about 300 to 5,000 RU of Ad virions immobilised on a CM5 chip, coagulation factors flowed over at four concentrations, 50 uL/min; 10 mM HEPES, 150 mM NaCl, 1 mM CaCl2, 0.5 mM MgCl2, 0.1% BSA, 0.05% polysorbate 20, pH 7.4; global fit to a 1:1 kinetic interaction model, double referencing
[2] = molecular target: chimeric hexon of Ad5:H6.1 (Ad5 vector, hexon residues 112-593 from Ad6 hexon), on the virion (human adenovirus type 5 | human adenovirus type 6) (UniProt P04133); experiment: as above
[3] = molecular target: chimeric hexon of Ad5:H57.1 (Ad5 vector, hexon residues 112-593 from Ad57 hexon), on the virion (human adenovirus type 5 | human adenovirus type 57) (UniProt P04133); experiment: as above
[4] = molecular target: chimeric hexon of Ad5:H1.2 (Ad5 vector, hexon residues 112-593 from Ad1 hexon, HVR7 IGVTRTY), on the virion (human adenovirus type 5 | human adenovirus type 1) (UniProt P04133); experiment: as above
[5] = molecular target: hexon of Ad5.10 (Ad5 vector, hexon HVR1 replaced with the HVR1 of Ad6 hexon), on the virion (human adenovirus type 5) (UniProt P04133); experiment: as above
[6] = molecular target: hexon of the Ad5 vector Ad5.10 (Ad5 hexon with HVR1 of Ad6 hexon, on virions) (human adenovirus 5) (UniProt P04133); experiment: SPR; Biacore T200; about 300 to 5,000 RU of Ad virions immobilised on a CM5 chip, coagulation factors flowed over at four concentrations, 50 uL/min; running buffer 10 mM HEPES, 150 mM NaCl, 1 mM CaCl2, 0.5 mM MgCl2, 0.1% BSA, 0.05% polysorbate 20, pH 7.4; regeneration with 3 mM EDTA; global fit to a 1:1 kinetic interaction model, double referencing
[7] = molecular target: hexon of the Ad5 vector Ad5.6 (on virions) (human adenovirus 5) (UniProt P04133); experiment: as above
[8] = molecular target: chimeric hexon of the Ad5 vector Ad5:H1.2 (Ad1 hexon section with HVR7 mutations, on virions) (human adenovirus 5 | human adenovirus 1) (UniProt P04133); experiment: as above
[9] = molecular target: hexon of wild-type human adenovirus type 1 (on virions) (human adenovirus 1); experiment: as above
[10] = molecular target: chimeric hexon of the Ad5 vector Ad5:H57.1 (Ad5 hexon with residues 112-593 from Ad57 hexon, on virions) (human adenovirus 5 | human adenovirus 57) (UniProt P04133); experiment: as above

In the case of “bovine coagulation factor X (from UniProt P00743 41-492) (natural protein)”, the Kd [1] is reported as 220 nM, the Kd [2] is reported as 97 nM and the Kd [3] is reported as 28 nM. For the same substance, the Kd [4] was 1100 nM, the Kd [5] was 276 nM and the Kd [6] was 276 nM. The koff [6] was 0.151 s⁻¹, the kon [6] was 549000 M⁻¹ s⁻¹ and the Kd [7] was 1620 nM. For the same substance, the koff [7] was 0.167 s⁻¹, the kon [7] was 104000 M⁻¹ s⁻¹ and the Kd [8] was 1100 nM. It also gave a koff [8] of 0.085 s⁻¹, a kon [8] of 77400 M⁻¹ s⁻¹ and a Kd [9] of 160 nM. It also gave a koff [9] of 0.0381 s⁻¹, a kon [9] of 232000 M⁻¹ s⁻¹ and a Kd [10] of 28 nM. The koff [10] was 0.00342 s⁻¹ and the kon [10] was 121000 M⁻¹ s⁻¹.
Substance “human coagulation factor X (from UniProt P00742 41-488) (natural protein)” has a Kd [1] of 300 nM, a Kd [2] of 43 nM and a Kd [3] of 58 nM. For the same substance, the Kd [4] was 650 nM, the Kd [5] was 1.1 nM and the Kd [6] was 1.1 nM. For the same substance, the koff [6] was 0.000122 s⁻¹, the kon [6] was 112000 M⁻¹ s⁻¹ and the Kd [7] was 0.94 nM. For the same substance, the koff [7] was 0.000127 s⁻¹, the kon [7] was 135000 M⁻¹ s⁻¹ and the Kd [8] was 650 nM. For the same substance, the koff [8] was 0.0631 s⁻¹, the kon [8] was 97200 M⁻¹ s⁻¹ and the Kd [9] was 220 nM. For the same substance, the koff [9] was 0.0501 s⁻¹, the kon [9] was 232000 M⁻¹ s⁻¹ and the Kd [10] was 58 nM. The koff [10] was 0.00316 s⁻¹ and the kon [10] was 54300 M⁻¹ s⁻¹.
Substance “mouse coagulation factor X (from UniProt O88947 41-481) (natural protein)” has a Kd [1] of 0.82 nM, a Kd [2] of 0.31 nM and a Kd [3] of 0.65 nM. It also gave a Kd [4] of 5 nM, a Kd [5] of 0.58 nM and a Kd [6] of 0.58 nM. For the same substance, the koff [6] was 0.00014 s⁻¹, the kon [6] was 240000 M⁻¹ s⁻¹ and the Kd [7] was 0.37 nM. For the same substance, the koff [7] was 0.000115 s⁻¹, the kon [7] was 310000 M⁻¹ s⁻¹ and the Kd [8] was 5 nM. For the same substance, the koff [8] was 0.00084 s⁻¹, the kon [8] was 169000 M⁻¹ s⁻¹ and the Kd [9] was 0.31 nM. The koff [9] was 7.73e-05 s⁻¹, the kon [9] was 253000 M⁻¹ s⁻¹ and the Kd [10] was 0.65 nM. It also gave a koff [10] of 9.23e-05 s⁻¹ and a kon [10] of 143000 M⁻¹ s⁻¹.
“mouse prothrombin (coagulation factor II) (from UniProt P19221 44-618) (natural protein)” was tested, and the Kd [1] was 16 nM, the Kd [2] was 8.6 nM and the Kd [3] was 10 nM. For the same substance, the Kd [4] was 1300 nM, the Kd [5] was 356 nM and the Kd [6] was 356 nM. The koff [6] was 0.06 s⁻¹, the kon [6] was 168000 M⁻¹ s⁻¹ and the Kd [7] was 420 nM. It also gave a koff [7] of 0.026 s⁻¹, a kon [7] of 62400 M⁻¹ s⁻¹ and a Kd [8] of 1300 nM. It also gave a koff [8] of 0.0483 s⁻¹, a kon [8] of 36800 M⁻¹ s⁻¹ and a Kd [9] of 14 nM. For the same substance, the koff [9] was 0.000687 s⁻¹, the kon [9] was 49800 M⁻¹ s⁻¹ and the Kd [10] was 10 nM. It also gave a koff [10] of 0.00031 s⁻¹ and a kon [10] of 29800 M⁻¹ s⁻¹.
